In assay [1] the target is T1, hCDH17-his (full length extracellular domain of human CDH17, Q23-M787, his tag at the C-terminal) (human, UniProt Q12864 23-787).
T1 construct: Limits of the construct (UniProt Q12864, Q23-M787, C-terminal his tag); also called human CDH17-his protein; human CDH17 protein
T1 sequence: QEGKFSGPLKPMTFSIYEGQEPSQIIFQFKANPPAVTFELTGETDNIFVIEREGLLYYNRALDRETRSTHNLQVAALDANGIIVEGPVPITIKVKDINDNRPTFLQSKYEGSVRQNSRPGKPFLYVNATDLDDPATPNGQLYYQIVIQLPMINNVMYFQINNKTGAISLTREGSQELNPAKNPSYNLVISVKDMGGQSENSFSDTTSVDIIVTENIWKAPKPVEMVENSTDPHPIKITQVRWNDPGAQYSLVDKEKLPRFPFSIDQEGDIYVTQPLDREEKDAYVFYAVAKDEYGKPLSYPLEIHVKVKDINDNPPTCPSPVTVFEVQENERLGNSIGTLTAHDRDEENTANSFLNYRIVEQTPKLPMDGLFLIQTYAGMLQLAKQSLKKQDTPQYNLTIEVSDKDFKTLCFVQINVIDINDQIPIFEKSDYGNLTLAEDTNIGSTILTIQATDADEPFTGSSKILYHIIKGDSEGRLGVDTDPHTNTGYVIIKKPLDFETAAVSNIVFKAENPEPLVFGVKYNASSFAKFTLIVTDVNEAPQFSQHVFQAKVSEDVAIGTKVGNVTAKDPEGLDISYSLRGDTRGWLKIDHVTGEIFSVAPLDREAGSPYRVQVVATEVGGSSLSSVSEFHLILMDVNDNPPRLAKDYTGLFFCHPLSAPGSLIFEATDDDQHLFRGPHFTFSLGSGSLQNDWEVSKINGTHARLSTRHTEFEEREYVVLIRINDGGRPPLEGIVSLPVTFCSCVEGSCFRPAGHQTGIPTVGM
The assay is described as follows: SPR (Biacore 8K), two doses, antibody captured on Protein A chip, hCDH17-his at 25 nM and 100 nM.

For assay [2], the target named is T2, human CDH17, full length, expressed on cells (HEK293-hCDH17); AsPC-1, HCT-8, AGS, LoVo, KATO III, HT-29 tumor … (human, UniProt Q12864 23-832).
T2 construct: also called human CDH17 expressed on tumor cells
T2 sequence: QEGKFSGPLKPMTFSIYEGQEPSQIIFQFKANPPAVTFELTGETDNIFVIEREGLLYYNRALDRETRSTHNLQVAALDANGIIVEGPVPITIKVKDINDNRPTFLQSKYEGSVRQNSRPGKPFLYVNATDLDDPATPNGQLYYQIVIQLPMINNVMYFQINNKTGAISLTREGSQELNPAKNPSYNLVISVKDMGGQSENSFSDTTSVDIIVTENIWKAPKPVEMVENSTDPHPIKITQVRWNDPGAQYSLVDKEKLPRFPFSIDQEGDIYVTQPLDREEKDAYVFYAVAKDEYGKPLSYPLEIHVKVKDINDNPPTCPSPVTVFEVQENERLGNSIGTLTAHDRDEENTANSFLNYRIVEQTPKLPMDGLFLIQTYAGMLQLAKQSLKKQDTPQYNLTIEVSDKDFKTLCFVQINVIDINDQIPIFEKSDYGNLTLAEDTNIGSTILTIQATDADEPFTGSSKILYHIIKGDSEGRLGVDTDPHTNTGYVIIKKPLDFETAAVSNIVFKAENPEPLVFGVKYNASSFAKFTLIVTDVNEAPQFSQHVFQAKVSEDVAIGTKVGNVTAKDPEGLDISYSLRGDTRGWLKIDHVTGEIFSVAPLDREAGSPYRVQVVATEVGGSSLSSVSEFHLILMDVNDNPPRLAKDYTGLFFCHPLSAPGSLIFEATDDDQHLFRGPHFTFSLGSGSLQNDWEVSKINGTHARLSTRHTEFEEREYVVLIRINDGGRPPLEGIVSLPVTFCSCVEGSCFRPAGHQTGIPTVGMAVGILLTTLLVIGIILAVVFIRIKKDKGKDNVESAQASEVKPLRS
The assay is described as follows: flow cytometry, HCT-8 cells. For orientation: A flow cytometer gives signals particle by particle.

In assay [3] the target is T2, human CDH17, full length, expressed on …. The assay can be described thus: flow cytometry, LoVo, HCT-8 and AsPC1 cells.

B1: 29H8D3-z12p3 (antibody, V domains shown)
VH: QVQLVQSGAEVKKPGASVKVSCKASGYTFTDHTIHWMRQRPGQGLEWIGYIYPRDGYTKYNEKFKDRATLTADTSTSTAYMELRSLRSDDTAVYYCARFYYGYWYFDVWGQGTTVTVSS
VL: DIVMTQSPLSLPVTPGEPASISCRSSKSLLRSNANTYLYWFLQKPGQSPQVLIYRMSNLASGVPDRFSGSGSGTDFTLKISRVEAEDVGVYYCMQHLEYPFTFGQGTKLEIK
notes: PTM-removed variant of 29H8D3-z12
Consider B1, for which the binding result in assay [1] and in assay [2] was “binds” each time.

B2: 29H8D3-z12p7 (antibody, V domains shown)
VH: QVQLVQSGAEVKKPGASVKVSCKASGYTFTDHTIHWMRQRPGQGLEWIGYIYPREGYTKYNEKFKDRATLTADTSTSTAYMELRSLRSDDTAVYYCARFYYGYWYFDVWGQGTTVTVSS
VL: DIVMTQSPLSLPVTPGEPASISCRSSKSLLRSNAQTYLYWFLQKPGQSPQVLIYRMSNLASGVPDRFSGSGSGTDFTLKISRVEAEDVGVYYCMQHLEYPFTFGQGTKLEIK
notes: as for B1
As to B2, the binding result in assay [1] and in assay [2] was “binds” each time.

B3: 29H8D3-z12p22 (antibody, V domains shown)
VH: QVQLVQSGAEVKKPGASVKVSCKASGYTFTDHTIHWMRQRPGQGLEWIGYIYPRDGYTKYNEKFKDRATLTADTSTSTAYMELRSLRSDDTAVYYCARFYYGYWYFDVWGQGTTVTVSS
VL: DIVMTQSPLSLPVTPGEPASISCRSSKSLLRSNGNTYLYWFLQKPGQSPQVLIYRMSNLASGVPDRFSGSGSGTDFTLKISRVEAEDVGVYYCLQHLEYPFTFGQGTKLEIK
notes: PTM-removed variant of 29H8D3-z12; VH is that of 29H8D3-z12
As to B3, the binding result in assay [1] and in assay [2] was “binds” in each case.

B4: 29H8D3-z12p4 (antibody, V domains shown)
VH: QVQLVQSGAEVKKPGASVKVSCKASGYTFTDHTIHWMRQRPGQGLEWIGYIYPREGYTKYNEKFKDRATLTADTSTSTAYMELRSLRSDDTAVYYCARFYYGYWYFDVWGQGTTVTVSS
VL: DIVMTQSPLSLPVTPGEPASISCRSSKSLLRSNANTYLYWFLQKPGQSPQVLIYRMSNLASGVPDRFSGSGSGTDFTLKISRVEAEDVGVYYCMQHLEYPFTFGQGTKLEIK
notes: as for B1
Turning to B4, the binding result in assay [1] and in assay [2] was “binds” each time.

B5: 29D2D7-z19p3 (antibody, V domains shown)
VH: QVQLVQSGAEVKKPGASVKVSCKASGYTFTDYDMHWVKQAPGQGLEWIGGFDPESAGTVYNLRFKDKATLTADKSTSTAYMELRSLRSEDTAVYYCARKGYYSVSSPFTYWGQGTLVTVSS
VL: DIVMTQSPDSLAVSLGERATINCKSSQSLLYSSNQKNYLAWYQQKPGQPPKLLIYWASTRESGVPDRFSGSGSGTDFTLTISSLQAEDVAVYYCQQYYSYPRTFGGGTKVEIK
notes: PTM-removed variant of 29D2D7-z19; VH is that of 29D2D7-z19
Regarding B5, the binding result in assay [1] and in assay [2] was “binds” in each case.

B6: 29D2D7-z19p5 (antibody, V domains shown)
VH: QVQLVQSGAEVKKPGASVKVSCKASGYTFTDYDMHWVKQAPGQGLEWIGGFDPESAGTVYNLRFKDKATLTADKSTSTAYMELRSLRSEDTAVYYCARKGYYSVSSPFTYWGQGTLVTVSS
VL: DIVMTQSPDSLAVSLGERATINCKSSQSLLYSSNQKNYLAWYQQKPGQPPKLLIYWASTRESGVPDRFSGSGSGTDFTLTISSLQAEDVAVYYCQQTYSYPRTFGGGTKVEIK
notes: as for B5
Consider B6, for which the binding result in assay [1] and in assay [2] was “binds” each time.

B7: 69E3H11-z12a19 (antibody, V domains shown)
VH: QVQLVQSGAEVKKPGASVKVSCKASGYTFTTYWMHWVKQAPGQRLEWIGEIDPSDSYANYNQKFKGKATLTVDKSASTAYMELSSLRSEDTAVYYCALYYGYGDWGQGTTVTVSS
VL: EIVLTQSPGTLSLSPGERATLSCSVSSSISKIHLHWYQQKPGQAPRLLIYRTSNLASGIPDRFSGSGSGTDFTLTISRLEPEDFAVYYCQQGSNLPLTFGQGTRLEIK
On to B7, for which the binding result in assay [1] and in assay [3] was “binds” in each case.

B8: 69E3H11-z12a20 (antibody, V domains shown)
VH: QVQLVQSGAEVKKPGASVKVSCKASGYTFTTYWMHWVKQAPGQRLEWIGEIDPSDSYANYNQKFKGKATLTVDKSASTAYMELSSLRSEDTAVYYCALYYGYGDWGQGTTVTVSS
VL: EIVLTQSPGTLSLSPGERATLSCSVSSSISRIHLHWYQQKPGQAPRLLIYRTSNLASGIPDRFSGSGSGTDFTLTISRLEPEDFAVYYCQQGSNLPLTFGQGTRLEIK
With B8, the binding result in assay [1] and in assay [3] was “binds” in each case.

B9: 69E3H11-z12a21 (antibody, V domains shown)
VH: QVQLVQSGAEVKKPGASVKVSCKASGYTFTTYWMHWVKQAPGQRLEWIGEIDPSDSYANYNQKFKGKATLTVDKSASTAYMELSSLRSEDTAVYYCALYYGYGDWGQGTTVTVSS
VL: EIVLTQSPGTLSLSPGERATLSCSVSASISRIHLHWYQQKPGQAPRLLIYRTSNLASGIPDRFSGSGSGTDFTLTISRLEPEDFAVYYCQQGSNLPLTFGQGTRLEIK
On to B9, for which the binding result in assay [1] and in assay [3] was “binds” throughout.

B10: 69E3H11-z12a42 (antibody, V domains shown)
VH: QVQLVQSGAEVKKPGASVKVSCKASGYTFTTYWMHWVKQAPGQRLEWIGEIDPSDSYANYNQKFKGKATLTVDKSASTAYMELSSLRSEDTAVYYCALYYGYGDWGQGTTVTVSS
VL: EIVLTQSPGTLSLSPGERATLSCSVSASISRIHLHWYQQKPGQAPRLLIYRTRNRASGIPDRFSGSGSGTDFTLTISRLEPEDFAVYYCQQGSNLPLTFGQGTRLEIK
In the case of B10, the binding result in assay [1] and in assay [3] was “binds” throughout.

B11: 69E3H11-z12a28 (antibody, V domains shown)
VH: QVQLVQSGAEVKKPGASVKVSCKASGYTFTTYWMHWVKQAPGQRLEWIGEIDPSDSYANYNQKFKGKATLTVDKSASTAYMELSSLRSEDTAVYYCALYYGYGDWGQGTTVTVSS
VL: EIVLTQSPGTLSLSPGERATLSCSVSSSISSIHLHWYQQKPGQAPRLLIYRTKNLASGIPDRFSGSGSGTDFTLTISRLEPEDFAVYYCQQGSNLPLTFGQGTRLEIK
On to B11, for which the binding result in assay [1] and in assay [3] was “binds” each time.

B12: 69E3H11-z12a26 (antibody, V domains shown)
VH: QVQLVQSGAEVKKPGASVKVSCKASGYTFTTYWMHWVKQAPGQRLEWIGEIDPSDSYANYNQKFKGKATLTVDKSASTAYMELSSLRSEDTAVYYCALYYGYGDWGQGTTVTVSS
VL: EIVLTQSPGTLSLSPGERATLSCSVSSSISSIHLHWYQQKPGQAPRLLIYRTRNLASGIPDRFSGSGSGTDFTLTISRLEPEDFAVYYCQQGSNLPLTFGQGTRLEIK
As for B12, the binding result in assay [1] and in assay [3] was “binds” in each case.

B13: 69E3H11-z12a27 (antibody, V domains shown)
VH: QVQLVQSGAEVKKPGASVKVSCKASGYTFTTYWMHWVKQAPGQRLEWIGEIDPSDSYANYNQKFKGKATLTVDKSASTAYMELSSLRSEDTAVYYCALYYGYGDWGQGTTVTVSS
VL: EIVLTQSPGTLSLSPGERATLSCSVSSSISSIHLHWYQQKPGQAPRLLIYRTRNRASGIPDRFSGSGSGTDFTLTISRLEPEDFAVYYCQQGSNLPLTFGQGTRLEIK
Consider B13, for which the binding result in assay [1] and in assay [3] was “binds” each time.

These data come from patent EP4806514A2 (Lepu Biopharma Co., Ltd., dated 2025).
